Source: US20240018502A1
Positions count from the first letter of the chain named. Numbers in names are those of the source.

B1: MTSP-1 I41R/ins97aV/F97D/T98P/F99L/C122S/G151N/Q192G (enzyme)
chain: VVGGTDADEGEWPWQVSLHALGQGHRCGASLISPNWLVSAAHCYIDDRGFRYSDPTQWTAFLGLHDQSQRSAPGVQERRLKRIISHPFFNDDVPLDYDIALLELEKPAEYSSMVRPISLPDASHVFPAGKAIWVTGWGHTQYGGTNALILQKGEIRVINQTTCENLLPQQITPRMMCVGFLSGGVDSCGGDSGGPLSSVEADGRIFQAGVVSWGDGCAQRNKPGVYTRLPLFRDWIKENTGV
B2: MTSP-1 Q38E/I41S/D60bH/F60eI/F97T/ins97aE/T98G/F99L/C122S/Q175L/Q192V (enzyme)
chain: B1 chain with Q23E, R26S, D47H, F50I, D92T, V93E, P94G, N146G, Q170L, G189V
B3: MTSP-1 Q38R/I41E/ins97aE/F97T/T98G/F99L/C122S/G151N/Q175L/Q192T (enzyme)
chain: B1 chain with Q23R, R26E, D92T, V93E, P94G, Q170L, G189T
B4: MTSP-1 Q38H/I41A/D60bA/F60eR/F97T/ins97aE/T98G/F99L/C122S/Q175L/Q192E (enzyme)
chain: B1 chain with Q23H, R26A, D47A, F50R, D92T, V93E, P94G, N146G, Q170L, G189E
B5: MTSP-1 H40R/I41H/F97D/ins97aV/T98P/F99L/C122S/Q175R/Q192G/D217E/K224R (enzyme)
chain: B1 chain with H25R, R26H, N146G, Q170R, D215E, K222R
B6: MTSP-1 Q38E/I41S/D60bV/F60eK/F97T/ins97aE/T98G/F99L/C122S/Q175L/Q192I (enzyme)
chain: B1 chain with Q23E, R26S, D47V, F50K, D92T, V93E, P94G, N146G, Q170L, G189I
B7: MTSP-1 Q38H/I41S/D60bA/F60eV/Y60gF/ins97aE/F97T/T98G/F99L/C122S/G151N/Q175L/Q192T (enzyme)
chain: B1 chain with Q23H, R26S, D47A, F50V, Y52F, D92T, V93E, P94G, Q170L, G189T
B8: MTSP-1 Q38E/I41S/D60bH/F60eI/ins97aE/F97T/T98G/F99L/C122S/G151N/Q175L/Q192V (enzyme)
chain: B1 chain with Q23E, R26S, D47H, F50I, D92T, V93E, P94G, Q170L, G189V
B9: MTSP-1 ins97aV/F97D/T98P/F99L/C122S/G151N/Q175L/Q192G (enzyme)
chain: B1 chain with R26I, Q170L
B10: MTSP-1 Q38R/I41S/D60bH/F60eV/ins97aE/F97T/T98G/F99L/C122S/G151N/Q175L/Q192E (enzyme)
chain: B1 chain with Q23R, R26S, D47H, F50V, D92T, V93E, P94G, Q170L, G189E
B11: MTSP-1 Q38H/I41A/D60bV/F60eR/Y60gW/ins97aE/F97T/T98G/F99L/C122S/G151N/Q175L/Q192D (enzyme)
chain: B1 chain with Q23H, R26A, D47V, F50R, Y52W, D92T, V93E, P94G, Q170L, G189D
B12: MTSP-1 Q38E/I41S/D60bV/F60eK/ins97aE/F97T/T98G/F99L/C122S/G151N/Q175L/Q192I (enzyme)
chain: B1 chain with Q23E, R26S, D47V, F50K, D92T, V93E, P94G, Q170L, G189I
B13: MTSP-1 Q38R/I41S/D60bH/F60eI/ins97aE/F97T/T98G/F99L/C122S/G151N/Q175L/Q192E (enzyme)
chain: B1 chain with Q23R, R26S, D47H, F50I, D92T, V93E, P94G, Q170L, G189E
B14: MTSP-1 Q38H/I41S/D60bT/F60eS/ins97aV/F97D/T98P/F99L/C122S/G151H/Q175L/Q192E (enzyme)
chain: B1 chain with Q23H, R26S, D47T, F50S, N146H, Q170L, G189E
B15: MTSP-1 Q38R/I41E/ins97aE/F97T/T98G/F99L/C122S/Q175L/Q192T (enzyme)
chain: B1 chain with Q23R, R26E, D92T, V93E, P94G, N146G, Q170L, G189T
B16: MTSP-1 I41D/ins97aE/F97T/T98G/F99L/C122S/G151N/Q175L/Q192E/Q209L (enzyme)
chain: B1 chain with R26D, D92T, V93E, P94G, Q170L, G189E, Q207L
B17: MTSP-1 I41R/ins97aV/F97D/T98P/F99L/C122S/G151N/Q175L/Q192E (enzyme)
chain: B1 chain with Q170L, G189E
B18: MTSP-1 Q38R/I41S/D60bH/F60eI/ins97aE/F97T/T98G/F99L/C122S/Q175L/Q192E (enzyme)
chain: B1 chain with Q23R, R26S, D47H, F50I, D92T, V93E, P94G, N146G, Q170L, G189E
B19: MTSP-1 ins97aV/F97D/T98P/F99L/C122S/Q175L/Q192E (enzyme)
chain: B1 chain with R26I, N146G, Q170L, G189E
B20: MTSP-1 F97D/ins97aV/T98P/F99L/C122S/G151N/Q175L/Q192E (enzyme)
chain: B1 chain with R26I, Q170L, G189E
B21: MTSP-1 Q38H/I41A/D60bA/F60eR/ins97aE/F97T/T98G/F99L/C122S/G151N/Q175L/Q192E (enzyme)
chain: B1 chain with Q23H, R26A, D47A, F50R, D92T, V93E, P94G, Q170L, G189E
B22: MTSP-1 Q38R/I41S/D60bH/F60eV/F97T/ins97aE/T98G/F99L/C122S/Q175L/Q192E (enzyme)
chain: B1 chain with Q23R, R26S, D47H, F50V, D92T, V93E, P94G, N146G, Q170L, G189E
B23: MTSP-1 Q38H/I41S/D60bV/F60eQ/Y60gF/ins97aE/F97T/T98G/F99L/C122S/Q175L/Q192I (enzyme)
chain: VVGGTDADEGEWPWQVSLHALGHGHSCGASLISPNWLVSAAHCYIDVRGQRFSDPTQWTAFLGLHDQSQRSAPGVQERRLKRIISHPFFNDTEGLDYDIALLELEKPAEYSSMVRPSLPDASHVFPAGKAIWVTGWGHTQYGGTGALILQKGEIRVINQTTCENLLPQLITPRMMCVGFLSGGVDSCIGDSGGPLSSVEADGRIFQAGVVSWGDGCAQRNKPGVYTRLPLFRDWIKENTGV
B24: MTSP-1 Q38H/I41S/D60bA/F60eV/Y60gF/F97T/ins97aE/T98G/F99L/C122S/Q175L/Q192T (enzyme)
chain: VVGGTDADEGEWPWQVSLHALGHGHSCGASLISPNWLVSAAHCYIDARGVRFSDPTQWTAFLGLHDQSQRSAPGVQERRLKRIISHPFFNDTEGLDYDIALLELEKPAEYSSMVRPISLPDASHVFPAGKAIWVTGWGHTQYGGTGALILQKGEIRVINQTTCENLLPQLITPRMMCVGFLSGGVDSCTGDSGGPLSSVEADGRIFQAGVVSWGDGCAQRNKPGVYTRLPLFRDWIKENTGV
B25: MTSP-1 Q38H/I41A/D60bV/F60eR/Y60gW/ins97aE/F97T/T98G/F99L/C122S/Q175L/Q192D (enzyme)
chain: B24 chain with S26A, A47V, V50R, F52W, T189D
B26: MTSP-1 Q38E/H40R/I41H/F97D/F99L/C122S/Q192G (enzyme)
chain: VVGGTDADEGEWPWQVSLHALGEGRHCGASLISPNWLVSAAHCYIDDRGFRYSDPTQWTAFLGLHDQSQRSAPGVQERRLKRIISHPFFNDDTLDYDIALLELEKPAEYSSMVRPISLPDASHVFPAGKAIWVTGWGHTQYGGTGALILQKGEIRVINQTTCENLLPQQITPRMMCVGFLSGGVDSCGGDSGGPLSSVEADGRIFQAGVVSWGDGCAQRNKPGVYTRLPLFRDWIKENTGV
B27: MTSP-1 Q38G/H40R/I41H/D60bN/F97D/F99L/C122S/Q175L/Q192G (enzyme)
chain: B26 chain with E23G, D47N, Q169L
B28: MTSP-1 Q38E/H40R/I41H/D60bN/F60eT/F97D/F99L/C122S/Q175L/Q192G (enzyme)
chain: B26 chain with D47N, F50T, Q169L
B29: MTSP-1 H40R/I41H/F97D/F99L/Q175R/Q192G/D217E/K224R (enzyme)
chain: B26 chain with E23Q, S117C, Q169R, D214E, K221R
B30: MTSP-1 Q38G/H40R/I41H/D60bK/F97D/F99L/C122S/Q175L/Q192G (enzyme)
chain: B26 chain with E23G, D47K, Q169L
B31: MTSP-1 Q38G/H40R/I41H/D60bN/F60eT/F97D/F99L/C122S/Q175L/Q192G (enzyme)
chain: B26 chain with E23G, D47N, F50T, Q169L
B32: MTSP-1 Q38G/H40R/I41H/D60bK/F60eT/F97D/F99L/C122S/Q175L/Q192G (enzyme)
chain: B26 chain with E23G, D47K, F50T, Q169L
B33: MTSP-1 Q38E/H40R/I41H/D60bK/F97D/F99L/C122S/Q175L/Q192G (enzyme)
chain: B26 chain with D47K, Q169L
B34: MTSP-1 Q38E/H40R/I41H/D60bK/F60eT/F97D/F99L/C122S/Q175L/Q192G (enzyme)
chain: B26 chain with D47K, F50T, Q169L
B35: MTSP-1 Q38E/H40R/I41H/D60bE/F97D/F99L/C122S/Q192G (enzyme)
chain: B26 chain with D47E
B36: MTSP-1 Q38E/H40R/I41H/D60bN/F97D/F99L/C122S/Q192G (enzyme)
chain: B26 chain with D47N

Target: plasma purified human complement protein C3 (human) (UniProt P01024)
Assay: cell-based or functional assay

Chain of plasma purified human complement protein C3 (human) (P01024 23-667, chain 1 of 2): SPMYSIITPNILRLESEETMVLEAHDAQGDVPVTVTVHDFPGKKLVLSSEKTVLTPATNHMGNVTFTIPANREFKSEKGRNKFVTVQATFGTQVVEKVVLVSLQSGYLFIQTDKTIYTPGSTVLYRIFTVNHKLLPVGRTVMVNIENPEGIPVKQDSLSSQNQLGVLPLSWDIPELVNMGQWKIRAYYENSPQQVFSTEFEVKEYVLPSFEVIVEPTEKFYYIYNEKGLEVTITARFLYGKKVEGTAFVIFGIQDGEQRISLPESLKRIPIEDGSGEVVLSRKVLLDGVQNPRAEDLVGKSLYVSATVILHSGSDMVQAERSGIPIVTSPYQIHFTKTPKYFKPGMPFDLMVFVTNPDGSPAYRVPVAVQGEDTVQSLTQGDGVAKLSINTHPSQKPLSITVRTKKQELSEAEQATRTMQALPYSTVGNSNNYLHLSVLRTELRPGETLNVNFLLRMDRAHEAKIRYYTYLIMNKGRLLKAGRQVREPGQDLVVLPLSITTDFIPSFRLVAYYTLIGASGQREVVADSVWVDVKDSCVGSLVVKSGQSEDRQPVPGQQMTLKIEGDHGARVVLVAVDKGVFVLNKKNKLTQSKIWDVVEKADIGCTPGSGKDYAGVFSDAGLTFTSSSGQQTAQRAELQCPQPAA
Chain of plasma purified human complement protein C3 (human) (P01024 672-1663, chain 2 of 2): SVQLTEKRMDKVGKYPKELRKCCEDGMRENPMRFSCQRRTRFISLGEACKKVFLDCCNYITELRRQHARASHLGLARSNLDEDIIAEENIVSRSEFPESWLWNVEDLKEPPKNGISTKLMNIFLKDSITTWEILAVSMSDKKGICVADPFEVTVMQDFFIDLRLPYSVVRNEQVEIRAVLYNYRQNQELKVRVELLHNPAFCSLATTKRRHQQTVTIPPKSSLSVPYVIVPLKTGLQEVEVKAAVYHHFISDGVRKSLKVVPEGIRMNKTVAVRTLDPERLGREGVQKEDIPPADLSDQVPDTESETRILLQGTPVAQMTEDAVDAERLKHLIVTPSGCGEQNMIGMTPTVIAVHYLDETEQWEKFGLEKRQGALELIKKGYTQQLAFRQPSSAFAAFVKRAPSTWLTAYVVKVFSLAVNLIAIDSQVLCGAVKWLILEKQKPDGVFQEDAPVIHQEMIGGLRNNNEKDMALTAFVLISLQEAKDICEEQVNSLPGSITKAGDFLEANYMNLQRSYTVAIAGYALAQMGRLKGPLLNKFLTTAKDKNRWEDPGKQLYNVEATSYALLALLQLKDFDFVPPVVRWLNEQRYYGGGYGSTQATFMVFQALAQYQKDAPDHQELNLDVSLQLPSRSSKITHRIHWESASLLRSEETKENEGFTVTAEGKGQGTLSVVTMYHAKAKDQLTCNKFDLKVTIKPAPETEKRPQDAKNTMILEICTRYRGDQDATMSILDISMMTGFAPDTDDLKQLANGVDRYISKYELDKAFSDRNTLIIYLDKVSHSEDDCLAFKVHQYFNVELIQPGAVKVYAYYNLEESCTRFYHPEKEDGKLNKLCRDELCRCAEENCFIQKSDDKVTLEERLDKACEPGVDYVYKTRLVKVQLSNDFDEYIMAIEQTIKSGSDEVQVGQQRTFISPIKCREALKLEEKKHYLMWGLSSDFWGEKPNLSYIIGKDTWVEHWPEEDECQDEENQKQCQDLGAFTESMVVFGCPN

| Binder | EC50 of hC3 cleavage [nM] |
| --- | --- |
| B1 | 232 |
| B2 | 10.4 |
| B3 | 105 |
| B4 | 12 |
| B5 | 65.8 |
| B6 | 20.4 |
| B7 | 14.2 |
| B8 | 11.5 |
| B9 | 38.5 |
| B10 | 22.5 |
| B11 | 7.74 |
| B12 | 19.1 |
| B13 | 32.9 |
| B14 | 29.8 |
| B15 | 63.3 |
| B16 | 103 |
| B17 | 187 |
| B18 | 27.3 |

| Binder | EC50 of hC3 cleavage [nM] |
| --- | --- |
| B19 | 158 |
| B20 | 194 |
| B21 | 14.2 |
| B22 | 35.2 |
| B23 | 5.95 |
| B24 | 7.46 |
| B25 | 2.37 |
| B26 | 30.9 |
| B27 | 0.867 |
| B28 | 9.42 |
| B29 | 21.9 |
| B30 | 20.6 |
| B31 | 11.9 |
| B32 | 21.3 |
| B33 | 15.3 |
| B34 | 16.6 |
| B35 | 28.1 |
| B36 | 39.5 |
